Target: T1, SarA (staphylococcal accessory regulator A), strain DB (Staphylococcus aureus, UniProt Q2G2U9 SEQ:1-124)
T1 sequence: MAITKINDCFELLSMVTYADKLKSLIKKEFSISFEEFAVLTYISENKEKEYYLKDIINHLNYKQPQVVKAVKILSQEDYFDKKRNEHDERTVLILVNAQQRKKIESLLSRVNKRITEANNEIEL
Assay: footprint
Conditions: tags: none (untagged full-length, expressed from pET9a in E. coli BL21(DE3)pLys); chain copies: 2 (dimer, stated); label: 32P

B1: agr P2-P3 inter-promoter region (cloned in pBKH50; DNase I footprint fragment about 240 bp with vector ends) (dsDNA)
DNA 1: CATTAAAACATGCTAAAAGCATTTATTTTCCAATTTTTCTTAACTAGTCGTTTTTTATTCTTAACTGTAAATTTTTTTATGTTAAAATATTAAATACAAATTACATTTAACAGTTAAGTATTTATTTCCTACAGTTAGGCAATATAATGATAAAAGATTGTACTAAATCGTATAATGACAGGATCCCCGG
DNA 2: CCGGGGATCCTGTCATTATACGATTTAGTACAATCTTTTATCATTATATTGCCTAACTGTAGGAAATAAATACTTAACTGTTAAATGTAATTTGTATTTAATATTTTAACATAAAAAAATTTACAGTTAAGAATAAAAAACGACTAGTTAAGAAAAATTGGAAAATAAATGCTTTTAGCATGTTTTAAGT
- apparent K (half saturation): 4.24 pM

Source: US6699662, “Inhibitors of staphylococcus SarA protein function involved in the expression of staphylococcal virulence factors and the use thereof in treating staphylococcal infections” (University of Arkansas)
